The data set “crystal structure” concerns the molecule itself. In words: crystal structure.
Data set [1] deals with T1, TPST2ΔC18 (38 kDa core domain of human tyrosylprotein sulfotransferase-2, Gly43–Leu359) (human, UniProt O60704 43-359).
T1 sequence (looked up): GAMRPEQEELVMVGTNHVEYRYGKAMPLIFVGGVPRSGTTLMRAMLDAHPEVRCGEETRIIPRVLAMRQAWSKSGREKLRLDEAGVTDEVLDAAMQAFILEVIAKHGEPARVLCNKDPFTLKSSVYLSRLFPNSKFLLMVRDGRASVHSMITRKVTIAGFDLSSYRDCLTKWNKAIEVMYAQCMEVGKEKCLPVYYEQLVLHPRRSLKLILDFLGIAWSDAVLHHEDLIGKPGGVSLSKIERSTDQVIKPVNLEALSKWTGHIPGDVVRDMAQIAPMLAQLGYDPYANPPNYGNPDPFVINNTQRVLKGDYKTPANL
In words: crystal structure.

Experimental findings from paper PMC3601584 (Nature communications, 2013) are described below.

B1: TPST2 (proposed catalytic domain of human tyrosylprotein sulfotransferase-2, Gly43-Ser377) (domain or fragment, UniProt O60704 43-377, looked up)
chain: GAMRPEQEELVMVGTNHVEYRYGKAMPLIFVGGVPRSGTTLMRAMLDAHPEVRCGEETRIIPRVLAMRQAWSKSGREKLRLDEAGVTDEVLDAAMQAFILEVIAKHGEPARVLCNKDPFTLKSSVYLSRLFPNSKFLLMVRDGRASVHSMITRKVTIAGFDLSSYRDCLTKWNKAIEVMYAQCMEVGKEKCLPVYYEQLVLHPRRSLKLILDFLGIAWSDAVLHHEDLIGKPGGVSLSKIERSTDQVIKPVNLEALSKWTGHIPGDVVRDMAQIAPMLAQLGYDPYANPPNYGNPDPFVINNTQRVLKGDYKTPANLKGYFQVNQNSTSSHLGSS
For the molecule B1, the binding result in “crystal structure” is “binds”.

B2: C4P5Y3 peptide (substrate peptide derived from human complement C4) (peptide)
peptide: EDFEDYEFD
With B2, the binding result in data set [1] is recorded as “binds”.
